We go through 2 substances from paper PMC7505656.

Assay [1] concerns the target wild-type E-cadherin extracellular domain, hexahistidine-tagged (human) (UniProt P12830). Briefly: single-molecule tracking cluster size distributions + kinetic Monte Carlo simulation; effective rate constants worked out from kMC on/off rates that were optimised so that simulated cluster size distributions match the experimental ones (1,250 E-cad/µm^2 in the simulation).

The target is the same in assay [2]. Briefly: FRET or BRET; single-molecule intermolecular FRET by TIRF microscopy; high-coverage wild-type (~1,400 E-cad/µm^2; 5 × 10^-7 M total in solution); AF555 donor, AF647 acceptor and unlabelled E-cad tethered by His6 to a DOPC/DGS-NTA(Ni) 19:1 supported lipid bilayer; 25 mM HEPES, 100 mM NaCl, 10 mM KCl, 2 mM CaCl2, 0.05 mM NiSO4, pH 8; average dissociation rate constant from a three-state Markov model. On the technique in general: Bioluminescence resonance energy transfer reports proximity on the nanometre scale.

The target of assay [3] is E-cadherin extracellular domain L175D cis-binding mutant, hexahistidine-tagged (human) (UniProt P12830). Briefly: FRET or BRET; single-molecule intermolecular FRET by TIRF microscopy; high-coverage mutant (~1,300 E-cad/µm^2; 5 × 10^-7 M total in solution); AF555 labelled wild-type donor with AF647 labelled mutant acceptor and unlabelled mutant, tethered by His6 to a DOPC/DGS-NTA(Ni) supported lipid bilayer; same buffer, pH 8; three-state Markov model.

Assay [4] addresses wild-type E-cadherin extracellular domain, hexahistidine-tagged (human) (UniProt P12830). Briefly: FRET or BRET; single-molecule intermolecular FRET by TIRF microscopy; intermediate-coverage wild-type (~1,000 E-cad/µm^2; 3 × 10^-7 M total in solution); AF555 donor, AF647 acceptor and unlabelled E-cad tethered by His6 to a DOPC/DGS-NTA(Ni) supported lipid bilayer; same buffer, pH 8; three-state Markov model.

The target is the same in assay [5]. Briefly: single-molecule tracking (TIRFM), cluster size from trajectory friction factors; AF555 labelled E-cad on DOPC supported lipid bilayers with 5% DGS-NTA(Ni); high, intermediate and low surface coverage (~39,000, ~1,000, ~0.6 E-cad/µm^2); raw friction factor data adapted from Thompson et al., 2019 and analysed here.
The target in assay [6] is E-cadherin extracellular domain L175D cis-binding mutant, hexahistidine-tagged (human) (UniProt P12830). Briefly: single-molecule tracking cluster size distributions + kinetic Monte Carlo simulation; effective rate constants worked out from kMC on/off rates that were optimised so that simulated cluster size distributions match the experimental ones (1,250 E-cad/µm^2 in the simulation).

The target is the same in assay [7]. Briefly: single-molecule tracking (TIRFM), cluster size from trajectory friction factors; AF555 labelled E-cad on DOPC supported lipid bilayers with 5% DGS-NTA(Ni); high, intermediate and low surface coverage (~39,000, ~1,000, ~0.6 E-cad/µm^2); raw friction factor data adapted from Thompson et al., 2019 and analysed here.

As for “wild-type E-cadherin extracellular domain, hexahistidine-tagged (from UniProt P12830 155-709) (domain or fragment)”, in assay [1], the binding affinity, specific cis-interaction was 10 µM; the effective koff, specific cis-interaction was 100 s⁻¹; the effective kon, specific cis-interaction was 2.7e+06 M⁻¹ s⁻¹. Moreover, the koff in assay [2] came to 1.04 s⁻¹. In assay [3], this substance registered a koff of 1.4 s⁻¹. The substance further gave a koff in assay [4] of 3.17 s⁻¹. In assay [5], the characteristic cluster size was 33 E-cad and the cluster size (E-cad per cluster) fell in the range of 40 to 160 E-cad.

Consider “E-cadherin extracellular domain L175D cis-binding mutant, hexahistidine-tagged (from UniProt P12830 155-709) (domain or fragment)”, for which, in assay [6], the effective koff, nonspecific cis-interaction is 1000 s⁻¹ and the effective kon, nonspecific cis-interaction is 1.1e+06 M⁻¹ s⁻¹. In assay [7], this substance returned a characteristic cluster size of 29 E-cad and a cluster size (E-cad per cluster) of 40 E-cad.

Usually koff stands for the rate constant with which the complex falls apart. A low value points to slow dissociation.
